{"source": "patent US12404345B2", "about": "“Humanized antibodies against iRHOM2” (SCIRHOM GMBH, priority 2021, dated 2025)", "molecules": {"B1": {"name": "23-B-04: humanized antibody binding human iRhom2; HCVD SEQ ID NO 25, LCVD SEQ ID NO 29 (antibody, V domains shown)", "VH": "QVTLRESGPALVKPTQTLTLTCTFSGFSLSTFGMGVGWIRQPPGKALEWLAHIWWDDEKYYNSALKSRLTISKDTSKNQVVLTITNMDPVDTATYYCARISNYGSNYWYFNVWGQGTLVTVSS", "VL": "AIQLTQSPSSLSASVGDRVTITCRASSSVSYMYWYQQKPGKAPKVLIYDTSNLASGVPSRFSGSGSGTDYTLTISSLQPEDFATYYCQQWNAYPLTFGQGTKLEIK", "modifications": "antibody sequences"}, "B2": {"name": "42-B-02: humanized antibody binding human iRhom2; HCVD SEQ ID NO 33, LCVD SEQ ID NO 37 (antibody, V domains shown)", "VH": "B1 VH with M34R, S101Q, N111D", "VL": "B1 VL with S28R, V29I, Y33F, A92S", "modifications": "antibody sequences"}, "B3": {"name": "42-B-04: humanized antibody binding human iRhom2; HCVD SEQ ID NO 41, LCVD SEQ ID NO 45 (antibody, V domains shown)", "VH": "B1 VH with M34R, S101Q, N111D", "VL": "B1 VL with S28R, V29I, Y33F", "modifications": "antibody sequences"}, "B4": {"name": "16-B-03: humanized antibody binding human iRhom2; HCVD SEQ ID NO 1, LCVD SEQ ID NO 5 (antibody, V domains shown)", "VH": "QVTLRESGPALVKPTQTLTLTCTFSGFSLSTFALGVGWIRQPPGKALEWLAHIWWDDDKYYNPALKSRLTISKDTSKNQVVLTITNMDPVDTATYYCARITTYYYGMDYWGQGTLVTVSS", "VL": "EIVMTQSPDFQSVTPKEKVTITCRASQSIGNHLHWYQQKPDASPKLLIKYASQSISGVPSRFSGSGSGTDFTLTINSLEAEDAATYFCQQSYQWPLTFGQGTKLEIK", "modifications": "antibody sequences"}, "B5": {"name": "16-B-07: humanized antibody binding human iRhom2; HCVD SEQ ID NO 17, LCVD SEQ ID NO 21 (antibody, V domains shown)", "VH": "B4 VH with D57E", "VL": "B4 VL", "modifications": "antibody sequences"}, "B6": {"name": "16-B-05: humanized antibody binding human iRhom2; HCVD SEQ ID NO 9, LCVD SEQ ID NO 13 (antibody, V domains shown)", "VH": "B4 VH with D57E", "VL": "B4 VL with Q93N", "modifications": "antibody sequences"}}, "note": "Numbering of substitutions follows the chain as printed."}
{"target": "T1, human iRhom1 (Homo sapiens, UniProt Q96CC6)", "T1 construct": "expressed in transfected cells; host or cells: immortalized iRhom1/2-/- DKO mouse embryonic fibroblasts, pMSCV retroviral infection", "T1 sequence (Q96CC6 1-855)": "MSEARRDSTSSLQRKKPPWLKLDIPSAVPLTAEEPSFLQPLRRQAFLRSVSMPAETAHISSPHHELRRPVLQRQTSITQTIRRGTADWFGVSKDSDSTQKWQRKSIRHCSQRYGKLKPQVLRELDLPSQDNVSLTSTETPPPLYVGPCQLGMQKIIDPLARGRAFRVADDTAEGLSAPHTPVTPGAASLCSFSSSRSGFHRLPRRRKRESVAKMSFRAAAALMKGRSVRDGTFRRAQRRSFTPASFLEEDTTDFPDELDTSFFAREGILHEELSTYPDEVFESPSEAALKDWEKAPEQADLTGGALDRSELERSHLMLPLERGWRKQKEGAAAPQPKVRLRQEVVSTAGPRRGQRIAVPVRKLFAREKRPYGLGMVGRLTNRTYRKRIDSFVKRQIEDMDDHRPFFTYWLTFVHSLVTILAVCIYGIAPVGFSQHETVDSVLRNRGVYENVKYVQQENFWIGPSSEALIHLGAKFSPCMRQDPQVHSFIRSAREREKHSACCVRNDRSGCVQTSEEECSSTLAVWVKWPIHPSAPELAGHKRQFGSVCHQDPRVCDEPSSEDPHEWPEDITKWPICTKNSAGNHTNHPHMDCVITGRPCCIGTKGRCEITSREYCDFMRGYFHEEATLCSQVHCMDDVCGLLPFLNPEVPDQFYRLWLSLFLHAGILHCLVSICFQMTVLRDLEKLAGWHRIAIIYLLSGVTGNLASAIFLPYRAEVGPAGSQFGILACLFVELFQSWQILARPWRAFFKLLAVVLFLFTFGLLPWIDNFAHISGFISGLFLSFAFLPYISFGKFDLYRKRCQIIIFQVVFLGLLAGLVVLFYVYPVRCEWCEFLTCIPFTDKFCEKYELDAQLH", "test": "FACS binding specificity on MEF-DKO-hiR1-FL-WT-T7 cells", "details": "antibody at 3 μg/ml", "description": "Due to the sequence homology of the human iRhom2 protein versus its closely related family member human iRhom1 (referring to the NCBI reference sequence NP_078875.4. for human iRhom2 and the NCBI reference sequence NP_071895.3 for human iRhom1, the amino acid sequence identity for the extracellular loops 1, 2, 3 and the C-terminal tail of human iRhom2 versus human iRhom1 are calculated as 67.4%, 100.00%, 80.00% and 63.64%, respectively), the binding specificity of the humanized antibodies 16-B-03, 16-B-05, 16-B-07, 23-B-04, 42-B-02, 42-B-04 of the invention for human iRhom2 versus human iRhom1 was assessed as a next step. For this purpose, iRhom1/2−/− DKO MEFs stably expressing a tagged form of human iRhom1 were generated.\nIn brief, on day 1, Phoenix-ECO cells (American Type Culture Collection, USA) were seeded on 6-well tissue culture plates (Greiner, Germany) in standard growth medium at 8×10^5 cells per well and kept overnight at 37° C., 5% CO2. On day 2, the medium was replaced by fresh medium supplemented with chloroquine (Sigma-Aldrich, USA) at a final concentration of 25 μM. Applying the calcium phosphate method, cells were transfected with 2 μg/ml of pMSCV-hiR1-FL-WT-T7 (SEQ ID NO 50) encoding human iRhom1 full length wild type C-terminally tagged with 3 consecutive copies of the T7 epitope, and were kept at 37° C., 5% CO2. After 7 hours, the transfections were stopped by replacing cell supernatants with standard growth medium lacking chloroquine, and cells were incubated at 37° C., 5% CO2 to allow virus production overnight. In parallel, immortalized iRhom1/2−/− DKO MEFs as target cells for retroviral infection were seeded on 6-well tissue culture plates (Greiner, Germany) in standard growth medium at 1×10^5 cells per well and were also kept overnight at 37° C., 5% CO2. On day 3, the supernatants of Phoenix-ECO cells releasing pMSCV-hiR1-FL-WT-T7 ecotrophic virus were collected, filtered with 0.45 μm CA filters, and supplemented with 4 μg/ml of polybrene (Sigma-Aldrich, USA). Upon removal of medium from the immortalized iRhom1/2−/− DKO MEFs, these supernatants were added to the target cells for 4 hours at 37° C., 5% CO2 for first infection. Simultaneously, Phoenix-ECO cells were re-incubated with fresh medium, which, after another 4 hours, was filtered and used for the second infection of the respective target cell populations, again in the presence of 4 μg/ml of polybrene. Likewise, a third, but overnight infection cycle was performed. On day 4, virus containing cell supernatants were replaced by fresh standard growth medium. From day 5 onwards, cells were grown in the presence of 2 mg/ml of geneticin (G418, Thermo Fisher Scientific, USA) for the selection of immortalized MEF-DKO-hiR1-FL-WT-T7 cells stably expressing human iRhom1 full length wild type C-terminally tagged with 3 consecutive copies of the T7 epitope. Upon propagation, cells were stocked for future usage.\nIn brief, in addition to immortalized MEF-DKO-EV control cells and MEF-DKO-hiR2-FL-WT-T7 cells (as already described in example 3), MEF-DKO-hiR1-FL-WT-T7 cells were harvested with 10 mM EDTA in PBS, washed and resuspended in FACS buffer (PBS, 3% FBS, 0.05% sodium azide), and seeded in Nunc U-bottom 96-well plates (Thermo Fisher Scientific, USA) at approximately 3×10^5 cells per well. To pellet cells and remove supernatants, the plates were centrifuged at 1,500 rpm and 4° C. for 3 minutes. For primary staining, cells were resuspended in 100 μl per well of either FACS buffer alone (controls), mouse monoclonal anti-T7 IgG (Merck Millipore, USA) at 3 μg/ml FACS buffer or the humanized antibodies 16-B-03, 16-B-05, 16-B-07, 23-B-04, 42-B-02, 42-B-04 of the invention also at 3 μg/ml FACS buffer and incubated on ice for 1 hour. Afterwards, plates were centrifuged at 1,500 rpm and 4° C. for 3 minutes and washed twice with 200 μl per well of FACS buffer. […]"}
{"molecule": "B1", "binding to human iRhom1 on MEF-DKO-hiR1-FL-WT-T7 cells": "none of these humanized antibodies of the invention recognizes human iRhom1"}
{"molecule": "B2", "binding to human iRhom1 on MEF-DKO-hiR1-FL-WT-T7 cells": "none of these humanized antibodies of the invention recognizes human iRhom1"}
{"molecule": "B3", "binding to human iRhom1 on MEF-DKO-hiR1-FL-WT-T7 cells": "none of these humanized antibodies of the invention recognizes human iRhom1"}
{"molecule": "B4", "binding to human iRhom1 on MEF-DKO-hiR1-FL-WT-T7 cells": "no significant binding"}
{"molecule": "B5", "binding to human iRhom1 on MEF-DKO-hiR1-FL-WT-T7 cells": "none of these humanized antibodies of the invention recognizes human iRhom1"}
{"molecule": "B6", "binding to human iRhom1 on MEF-DKO-hiR1-FL-WT-T7 cells": "none of these humanized antibodies of the invention recognizes human iRhom1"}
